According to article PMC7432852, “2-Ketoglutarate-Generated In Vitro Enzymatic Biosystem Facilitates Fe(II)/2-Ketoglutarate-Dependent Dioxygenase-Mediated C–H Bond Oxidation for (2S,3R,4S)-4-Hydroxyisoleucine Synthesis” (International Journal of Molecular Sciences, 2020):

B1: IDO (L-Ile dioxygenase) (Bacillus thuringiensis) (protein)
chain: MKMSGFSIEEKVHEFESKGFLEISNEIFLQEEENHSLLTQAQLDYYNLEDDAYGECRARSYSRYIKYVDSPDYILDNSNDYFQSKEYNYDDGGKVRQFNSINDSFLCNPLIQNIVRFDTEFAFKTNIIDKSKDLIIGLHQVRYKATKERPSFSSPIWLHKDDEPVVFLHLMNLSNTAIGGDNLIANSPREINQFISLKEPLETLVFGQKVFHAVTPLGTECSTEAFRDILLVTFSYKETK

Assays:
[1] = tested on: LGOX (L-glutamate oxidase); conditions: 50 mM Tris-HCl pH 7.0, 30 °C; L-Glu 0.5–20 mM
Source text: initial rate of 2-KG formation by HPLC, catalase present, Michaelis-Menten fit on LGOX (L-glutamate oxidase)

[2] = substrate: CC[C@H](C)[C@H](N)C(=O)O; experiment: initial rate of 4-HIL formation by HPLC, Michaelis-Menten fit; type: biochemical, Bacillus thuringiensis; conditions: 50 mM Tris-HCl pH 7.0, 30 °C, co-substrate 2-KG, FeSO4, L-ascorbic acid, L-Ile 0.5–20 mM
Source text: (§1) initial rate of 4-HIL formation by HPLC, Michaelis-Menten fit on IDO (L-Ile dioxygenase)

[3] = substrate: O=C(O)CCC(=O)C(=O)O; experiment: as above; type: biochemical, Bacillus thuringiensis; conditions: 50 mM Tris-HCl pH 7.0, 30 °C, co-substrate L-Ile, FeSO4, L-ascorbic acid, 2-KG 1–40 mM
Source text: as §1

Row | Molecule | Km [1] [mM] | Km [2] [mM] | Vmax [2] [µmol/min/mg] | kcat [2] [s⁻¹] | Km [3] [mM] | Vmax [3] [µmol/min/mg] | kcat [3] [s⁻¹]
1 | N[C@@H](CCC(=O)O)C(=O)O [L-Glu] | 2.65 ± 0.11 |  |  |  |  |  | 
2 | B1 |  | 6.34 ± 0.12 | 8.99 | 4.18 ± 0.08 | 15.12 ± 0.08 | 19.8 | 9.18 ± 0.07
